These results are taken from US20250312376A1 (FLAGSHIP PIONEERING INNOVATIONS VI, published 2025).

The target of the test is T1, BCMA on BCMA-positive tumor cell lines (H929, RPMI-8226) (UniProt Q02223 1-184, limits assumed).
T1 sequence (looked up): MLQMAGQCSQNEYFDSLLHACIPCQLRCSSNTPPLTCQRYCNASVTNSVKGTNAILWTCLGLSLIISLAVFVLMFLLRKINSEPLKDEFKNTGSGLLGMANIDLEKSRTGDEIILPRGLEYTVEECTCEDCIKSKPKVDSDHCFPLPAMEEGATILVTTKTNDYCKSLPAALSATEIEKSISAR
Nature of the test: cell-based or functional assay.

B1: BCMA-CAR fusion polypeptide (receptor)
chain: QVQLVQSGAEVKKPGASVKVSCKASGYSFPDYYINWVRQAPGQGLEWMGWIYFASGNSEYNQKFTGRVTMTRDTSSSTAYMELSSLRSEDTAVYFCASLYDYDWYFDVWGQGTMVTVSSGGGGSGGGGSGGGGSDIVMTQTPLSLSVTPGEPASISCKSSQSLVHSNGNTYLHWYLQKPGQSPQLLIYKVSNRFSGVPDRFSGSGSGADFTLKISRVEAEDVGVYYCAETSHVPWTFGQGTKLEIKTTTPAPRPPTPAPTIASQPLSLRPEACRPAAGGAVHTRGLDFACDIYIWAPLAGTCGVLLLSLVITLYCRSKRSRLLHSDYMNMTPRRPGPTRKHYQPYAPPRDFAAYRSRVKFSRSADAPAYQQGQNQLYNELNLGRREEYDVLDKRRGRDPEMGGKPRRKNPQEGLYNELQKDKMAEAYSEIGMKGERRRGKGHDGLYQGLSTATKDTYDALHMQALPPR
On to B1, for which the “% killing at a 0.625 ratio of effector T cells to tumor cells (one donor)” value was more than 50%.
